Legend:
[1] = substrate: OCC1CCC(CO)CC1; assay: initial rate of HMCA formation by GC, Michaelis-Menten fit; assay type: biochemical, Pseudarthrobacter chlorophenolicus; details: 1-100 mM CHDM, air-saturated O2, 100 mM potassium phosphate pH 8.0, 30 °C, 5% DMSO, 0.1 g/L catalase
Source text: initial rate of HMCA formation by GC, Michaelis-Menten fit on AcCO

[2] = substrate: O=CC1CCC(CO)CC1; assay: initial rate of CHDA formation by GC, Michaelis-Menten fit; assay type: biochemical, Pseudarthrobacter chlorophenolicus; details: 1-100 mM HMCA, air-saturated O2, 100 mM potassium phosphate pH 8.0, 30 °C, 5% DMSO, 0.1 g/L catalase
Source text: initial rate of CHDA formation by GC, Michaelis-Menten fit on AcCO

Row | Protein | Km [1] [mM] | kcat [1] [s⁻¹] | kcat/Km [1] [M⁻¹ s⁻¹] | Km [2] [mM] | kcat [2] [s⁻¹] | kcat/Km [2] [M⁻¹ s⁻¹]
1 | AcCO (Pseudarthrobacter chlorophenolicus A6) (protein, codon-optimized synthetic gene in pET-28a(+) (BamHI/EcoRI), E. coli BL21(DE3), purified by AKTA; FAD-dependent) MHIDNIENLSDRGFDYVVIGGGSAGAAVAARLSEDPDVSVALVEAGPDDRNIPEILQLDRWMELLESGYDWDYPIEPQENGNSFMRHARAKVMGGCSSHNSCIAFWAPREDLDEWESKYGATGWNAANAWPLYKRLETNQDAGPDAPHHGDSGPVHLMNVPPADPSGVALLDACEEAGIPRARFNTGTTVVNGANFFQINRRGDGTRSSSSVSYIHPIIERDNFTLLTGLRARQLVFDADKRCTGVEVVDGAFGRTHRLTARHEVILSTGAIDSPKLLMLSGIGPAEHLAQHGIEVLVDSPGVGENLQDHPEGVVQFEAKQPMVQTSTQWWEIGIFTPTEDGLDRPDLMMHYGSVPFDMNTLRHGYPTTENGFSLTPNVTHARSRGTVRLRSRDFRDKPMVDPRYFTDPEGHDMRVMVAGIRKAREIAAQPAMSAWTGRELSPGVGAQTDEELQDYIRKTHNTVYHPVGTVRMGADDDGMSPLDARLRVKGVTGLRVADASVMPEHVTVNPNITVMMIGERCADLIKADYAGADALEEKELTTSFA | 15.30 ± 0.14 | 0.00267 ± 0.000467 | 0.167 | 26.81 ± 0.19 | 0.000717 ± 0.000217 | 0.0267
2 | AcCO (Pseudarthrobacter chlorophenolicus A6; H351V/S101A) (protein, codon-optimized synthetic gene in pET-28a(+) (BamHI/EcoRI), E. coli BL21(DE3), purified by AKTA; FAD-dependent) MHIDNIENLSDRGFDYVVIGGGSAGAAVAARLSEDPDVSVALVEAGPDDRNIPEILQLDRWMELLESGYDWDYPIEPQENGNSFMRHARAKVMGGCSSHNACIAFWAPREDLDEWESKYGATGWNAANAWPLYKRLETNQDAGPDAPHHGDSGPVHLMNVPPADPSGVALLDACEEAGIPRARFNTGTTVVNGANFFQINRRGDGTRSSSSVSYIHPIIERDNFTLLTGLRARQLVFDADKRCTGVEVVDGAFGRTHRLTARHEVILSTGAIDSPKLLMLSGIGPAEHLAQHGIEVLVDSPGVGENLQDHPEGVVQFEAKQPMVQTSTQWWEIGIFTPTEDGLDRPDLMMVYGSVPFDMNTLRHGYPTTENGFSLTPNVTHARSRGTVRLRSRDFRDKPMVDPRYFTDPEGHDMRVMVAGIRKAREIAAQPAMSAWTGRELSPGVGAQTDEELQDYIRKTHNTVYHPVGTVRMGADDDGMSPLDARLRVKGVTGLRVADASVMPEHVTVNPNITVMMIGERCADLIKADYAGADALEEKELTTSFA | 10.21 ± 0.46 | 0.02183 ± 0.000183 | 2.17 | 14.44 ± 0.46 | 0.00683 ± 0.000233 | 0.473
3 | AcCO (Pseudarthrobacter chlorophenolicus A6; S101A) (protein, codon-optimized synthetic gene in pET-28a(+) (BamHI/EcoRI), E. coli BL21(DE3), purified by AKTA; FAD-dependent) MHIDNIENLSDRGFDYVVIGGGSAGAAVAARLSEDPDVSVALVEAGPDDRNIPEILQLDRWMELLESGYDWDYPIEPQENGNSFMRHARAKVMGGCSSHNACIAFWAPREDLDEWESKYGATGWNAANAWPLYKRLETNQDAGPDAPHHGDSGPVHLMNVPPADPSGVALLDACEEAGIPRARFNTGTTVVNGANFFQINRRGDGTRSSSSVSYIHPIIERDNFTLLTGLRARQLVFDADKRCTGVEVVDGAFGRTHRLTARHEVILSTGAIDSPKLLMLSGIGPAEHLAQHGIEVLVDSPGVGENLQDHPEGVVQFEAKQPMVQTSTQWWEIGIFTPTEDGLDRPDLMMHYGSVPFDMNTLRHGYPTTENGFSLTPNVTHARSRGTVRLRSRDFRDKPMVDPRYFTDPEGHDMRVMVAGIRKAREIAAQPAMSAWTGRELSPGVGAQTDEELQDYIRKTHNTVYHPVGTVRMGADDDGMSPLDARLRVKGVTGLRVADASVMPEHVTVNPNITVMMIGERCADLIKADYAGADALEEKELTTSFA | 13.45 ± 0.23 | 0.00617 ± 0.00107 | 0.45 | 20.42 ± 0.12 | 0.00233 ± 0.000367 | 0.114
4 | AcCO (Pseudarthrobacter chlorophenolicus A6; H351V/N378S/S101A) (protein, codon-optimized synthetic gene in pET-28a(+) (BamHI/EcoRI), E. coli BL21(DE3), purified by AKTA; FAD-dependent) MHIDNIENLSDRGFDYVVIGGGSAGAAVAARLSEDPDVSVALVEAGPDDRNIPEILQLDRWMELLESGYDWDYPIEPQENGNSFMRHARAKVMGGCSSHNACIAFWAPREDLDEWESKYGATGWNAANAWPLYKRLETNQDAGPDAPHHGDSGPVHLMNVPPADPSGVALLDACEEAGIPRARFNTGTTVVNGANFFQINRRGDGTRSSSSVSYIHPIIERDNFTLLTGLRARQLVFDADKRCTGVEVVDGAFGRTHRLTARHEVILSTGAIDSPKLLMLSGIGPAEHLAQHGIEVLVDSPGVGENLQDHPEGVVQFEAKQPMVQTSTQWWEIGIFTPTEDGLDRPDLMMVYGSVPFDMNTLRHGYPTTENGFSLTPSVTHARSRGTVRLRSRDFRDKPMVDPRYFTDPEGHDMRVMVAGIRKAREIAAQPAMSAWTGRELSPGVGAQTDEELQDYIRKTHNTVYHPVGTVRMGADDDGMSPLDARLRVKGVTGLRVADASVMPEHVTVNPNITVMMIGERCADLIKADYAGADALEEKELTTSFA | 7.63 ± 0.72 | 0.0312 ± 0.002 | 4 | 6.81 ± 0.13 | 0.00883 ± 0.002 | 1.3
5 | AcCO (Pseudarthrobacter chlorophenolicus A6; H351V) (protein, codon-optimized synthetic gene in pET-28a(+) (BamHI/EcoRI), E. coli BL21(DE3), purified by AKTA; FAD-dependent) MHIDNIENLSDRGFDYVVIGGGSAGAAVAARLSEDPDVSVALVEAGPDDRNIPEILQLDRWMELLESGYDWDYPIEPQENGNSFMRHARAKVMGGCSSHNSCIAFWAPREDLDEWESKYGATGWNAANAWPLYKRLETNQDAGPDAPHHGDSGPVHLMNVPPADPSGVALLDACEEAGIPRARFNTGTTVVNGANFFQINRRGDGTRSSSSVSYIHPIIERDNFTLLTGLRARQLVFDADKRCTGVEVVDGAFGRTHRLTARHEVILSTGAIDSPKLLMLSGIGPAEHLAQHGIEVLVDSPGVGENLQDHPEGVVQFEAKQPMVQTSTQWWEIGIFTPTEDGLDRPDLMMVYGSVPFDMNTLRHGYPTTENGFSLTPNVTHARSRGTVRLRSRDFRDKPMVDPRYFTDPEGHDMRVMVAGIRKAREIAAQPAMSAWTGRELSPGVGAQTDEELQDYIRKTHNTVYHPVGTVRMGADDDGMSPLDARLRVKGVTGLRVADASVMPEHVTVNPNITVMMIGERCADLIKADYAGADALEEKELTTSFA | 13.36 ± 0.12 | 0.00683 ± 0.00045 | 0.517 | 16.24 ± 0.11 | 0.004 ± 0.000367 | 0.247
6 | AcCO (Pseudarthrobacter chlorophenolicus A6; H351V/N378S/Q329N/S101A) (protein, codon-optimized synthetic gene in pET-28a(+) (BamHI/EcoRI), E. coli BL21(DE3), purified by AKTA; FAD-dependent) MHIDNIENLSDRGFDYVVIGGGSAGAAVAARLSEDPDVSVALVEAGPDDRNIPEILQLDRWMELLESGYDWDYPIEPQENGNSFMRHARAKVMGGCSSHNACIAFWAPREDLDEWESKYGATGWNAANAWPLYKRLETNQDAGPDAPHHGDSGPVHLMNVPPADPSGVALLDACEEAGIPRARFNTGTTVVNGANFFQINRRGDGTRSSSSVSYIHPIIERDNFTLLTGLRARQLVFDADKRCTGVEVVDGAFGRTHRLTARHEVILSTGAIDSPKLLMLSGIGPAEHLAQHGIEVLVDSPGVGENLQDHPEGVVQFEAKQPMVQTSTNWWEIGIFTPTEDGLDRPDLMMVYGSVPFDMNTLRHGYPTTENGFSLTPSVTHARSRGTVRLRSRDFRDKPMVDPRYFTDPEGHDMRVMVAGIRKAREIAAQPAMSAWTGRELSPGVGAQTDEELQDYIRKTHNTVYHPVGTVRMGADDDGMSPLDARLRVKGVTGLRVADASVMPEHVTVNPNITVMMIGERCADLIKADYAGADALEEKELTTSFA | 1.12 ± 0.19 | 0.0367 ± 0.00717 | 32.7 | 5.24 ± 0.28 | 0.0157 ± 0.000717 | 3

Reference: PMC10991250, “Efficient synthesis 1,4-cyclohexanedicarboxaldehyde by an engineered alcohol oxidase” (Bioresources and Bioprocessing, 2022)
